Measured values as given in the RNAGym collection of RNA variant scans (doi:10.1073/pnas.2313332121).
Fewer inactive variants are shown than the library holds.

B1: TPR 5TU (parent)
chain: GGAUCUUCUCGAUCUAACAAAAAAGACAAAUCUGCCACAAAGCUUGAGAGCAUCUUCGGAUGCAGAGGCGGCAGCCUUCGGUGGCGCGAUAGCGCCAACGUUCUCAACUAUGACACGCAAAACGCGUGCUCCGUUGAAUGGAGUUUAUCAUG

Variants of: B1
Assay: polymerase ribozyme fitness, log enrichment relative to wild type (log ratio); higher = more active; in vitro selection for triplet polymerase activity
How it was run: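 Libraries of mutants in each subunit of a heterodimeric triplet polymerase ribozyme were generated by PCR and transcribed. In triplicate, each went through one in vitro selection round: annealing with biotinylated primer, partner subunit and triplets; frozen incubation at −7 °C; gel excision of extended constructs; streptavidin-bead capture; RT-PCR. Fitness, taken from Illumina sequencing of input and output libraries, is the logarithm of a genotype's enrichment over wild-type enrichment, averaged across replicates with inverse-variance weights. The logarithm is base 2, and genotypes needed ≥10 input reads and ≥1 read per output to be kept.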

**Q.** With A37U A49C C95G A97G C108G A138G U146G U151A as the variant, how does the “polymerase ribozyme fitness (log ratio)” value read?
**A.** ≤ -4.2

**Q.** With A40U G50C A91G U104A as the variant, how does the “polymerase ribozyme fitness (log ratio)” value read?
**A.** ≤ -4.2

**Q.** Which “polymerase ribozyme fitness (log ratio)” value does the source give for C85U A137C here?
**A.** -3.1

**Q.** Which “polymerase ribozyme fitness (log ratio)” value does the source give for A24C C43A U45A here?
**A.** ≤ -4.2

**Q.** For A26C G50A G67A G70C G83U C87U U90C, which “polymerase ribozyme fitness (log ratio)” value is on record?
**A.** ≤ -4.2

**Q.** Which “polymerase ribozyme fitness (log ratio)” value does the source give for A41U G92A here?
**A.** -3.1

**Q.** With C18A G50A G68A C96G C99U G136A as the variant, how does the “polymerase ribozyme fitness (log ratio)” value read?
**A.** ≤ -4.2

**Q.** For A41C C87U U102A U109C G136A A138U, which “polymerase ribozyme fitness (log ratio)” value is on record?
**A.** ≤ -4.2

**Q.** For U15G A122G, which “polymerase ribozyme fitness (log ratio)” value is on record?
**A.** -1.2

**Q.** With U4G G46A as the variant, how does the “polymerase ribozyme fitness (log ratio)” value read?
**A.** -0.673

**Q.** With A64G C85U as the variant, how does the “polymerase ribozyme fitness (log ratio)” value read?
**A.** -3.21

**Q.** With C36U A97U U130C as the variant, how does the “polymerase ribozyme fitness (log ratio)” value read?
**A.** -1.25

**Q.** For A20G C63U C96A G143C, which “polymerase ribozyme fitness (log ratio)” value is on record?
**A.** -3.2

**Q.** Which “polymerase ribozyme fitness (log ratio)” value does the source give for A22C G42U A47G C76G A91G A106U A110G here?
**A.** ≤ -4.2

**Q.** With U102A C114A as the variant, how does the “polymerase ribozyme fitness (log ratio)” value read?
**A.** -4

**Q.** Which “polymerase ribozyme fitness (log ratio)” value does the source give for G34U A47G G92U C99U A119C U146A here?
**A.** ≤ -4.2

**Q.** For G67U G74C A107U C123G, which “polymerase ribozyme fitness (log ratio)” value is on record?
**A.** ≤ -4.2

**Q.** Which “polymerase ribozyme fitness (log ratio)” value does the source give for A21C A23C G80A U82G G86U A137G here?
**A.** ≤ -4.2

**Q.** For A47C U55G U56C C85U G133C G140C, which “polymerase ribozyme fitness (log ratio)” value is on record?
**A.** ≤ -4.2

**Q.** Which “polymerase ribozyme fitness (log ratio)” value does the source give for A121G U148A here?
**A.** -3.78

**Q.** Which “polymerase ribozyme fitness (log ratio)” value does the source give for U4G U61G C76G C93G C103U here?
**A.** ≤ -4.2

**Q.** Which “polymerase ribozyme fitness (log ratio)” value does the source give for A23C C118U U144A here?
**A.** ≤ -4.2

**Q.** Which “polymerase ribozyme fitness (log ratio)” value does the source give for G84A C103U here?
**A.** -2.51

**Q.** For U53G G83C, which “polymerase ribozyme fitness (log ratio)” value is on record?
**A.** -3.03

**Q.** Which “polymerase ribozyme fitness (log ratio)” value does the source give for U15A A49C U53A G86U here?
**A.** ≤ -4.2

**Q.** For A22U A52C U55A G67U, which “polymerase ribozyme fitness (log ratio)” value is on record?
**A.** ≤ -4.2

**Q.** With G25U G68U G83U U104G A115C as the variant, how does the “polymerase ribozyme fitness (log ratio)” value read?
**A.** ≤ -4.2

**Q.** Which “polymerase ribozyme fitness (log ratio)” value does the source give for U55G C103A here?
**A.** -2.99

**Q.** For C32U U77A A89U C93U A106U, which “polymerase ribozyme fitness (log ratio)” value is on record?
**A.** ≤ -4.2

**Q.** Which “polymerase ribozyme fitness (log ratio)” value does the source give for U13A A41C C43G A60C A138G A150G here?
**A.** ≤ -4.2

**Q.** For G58C C116G, which “polymerase ribozyme fitness (log ratio)” value is on record?
**A.** 0.494

**Q.** Which “polymerase ribozyme fitness (log ratio)” value does the source give for G70A U77G U78G C87A A97C A122U here?
**A.** ≤ -4.2

**Q.** For A20C A24U C57U, which “polymerase ribozyme fitness (log ratio)” value is on record?
**A.** -0.111

**Q.** With U61A A106U as the variant, how does the “polymerase ribozyme fitness (log ratio)” value read?
**A.** -2.41

**Q.** Which “polymerase ribozyme fitness (log ratio)” value does the source give for A20G here?
**A.** -0.287

**Q.** Which “polymerase ribozyme fitness (log ratio)” value does the source give for U15C A52C C85G G94A here?
**A.** 0.00508

**Q.** For A52G U55C, which “polymerase ribozyme fitness (log ratio)” value is on record?
**A.** -0.523

**Q.** Which “polymerase ribozyme fitness (log ratio)” value does the source give for C57U G58C C79U here?
**A.** -1.86

**Q.** With A16C C32A A41U A60G G74U C93G A147U as the variant, how does the “polymerase ribozyme fitness (log ratio)” value read?
**A.** ≤ -4.2

**Q.** Which “polymerase ribozyme fitness (log ratio)” value does the source give for A98G G140C here?
**A.** -3.59

**Q.** Which “polymerase ribozyme fitness (log ratio)” value does the source give for U31G G83U here?
**A.** -0.727

**Q.** With U101G A137G as the variant, how does the “polymerase ribozyme fitness (log ratio)” value read?
**A.** -1.31

**Q.** For C32A C54A U130A, which “polymerase ribozyme fitness (log ratio)” value is on record?
**A.** ≤ -4.2

**Q.** For C93A G140U, which “polymerase ribozyme fitness (log ratio)” value is on record?
**A.** -3.85

**Q.** For C38U C95A A120G G141C, which “polymerase ribozyme fitness (log ratio)” value is on record?
**A.** -1.16

**Q.** For C14A A17U A115G, which “polymerase ribozyme fitness (log ratio)” value is on record?
**A.** -3.2

**Q.** With A41C U53C A122C C123A G141U U144G as the variant, how does the “polymerase ribozyme fitness (log ratio)” value read?
**A.** -3.18

**Q.** Which “polymerase ribozyme fitness (log ratio)” value does the source give for A22C G65A U104G A107C U127G here?
**A.** ≤ -4.2

**Q.** With A73G C85U as the variant, how does the “polymerase ribozyme fitness (log ratio)” value read?
**A.** -0.115

**Q.** Which “polymerase ribozyme fitness (log ratio)” value does the source give for C51U U56A A91G here?
**A.** -3.44

**Q.** Which “polymerase ribozyme fitness (log ratio)” value does the source give for C27G U77A G86U A115G C131U G143C U151G here?
**A.** ≤ -4.2

**Q.** For C18G C32U G46C U53A C85U, which “polymerase ribozyme fitness (log ratio)” value is on record?
**A.** ≤ -4.2

**Q.** With U56A U139C as the variant, how does the “polymerase ribozyme fitness (log ratio)” value read?
**A.** -3.15

**Q.** With A21C G136A as the variant, how does the “polymerase ribozyme fitness (log ratio)” value read?
**A.** 0.615

**Q.** For G42A G59U, which “polymerase ribozyme fitness (log ratio)” value is on record?
**A.** -3.95

**Q.** For U55G G71A C87G G112C, which “polymerase ribozyme fitness (log ratio)” value is on record?
**A.** ≤ -4.2

**Q.** For C14U G59A C87U U90G C114A, which “polymerase ribozyme fitness (log ratio)” value is on record?
**A.** ≤ -4.2

**Q.** Which “polymerase ribozyme fitness (log ratio)” value does the source give for C38A A89U C93A G128A here?
**A.** ≤ -4.2

**Q.** With U31A A49C U82G G84C U127G C131U U151A as the variant, how does the “polymerase ribozyme fitness (log ratio)” value read?
**A.** ≤ -4.2

**Q.** With A3U C5G A21U A30G C93A U148A as the variant, how does the “polymerase ribozyme fitness (log ratio)” value read?
**A.** ≤ -4.2

**Q.** With A119C G133C as the variant, how does the “polymerase ribozyme fitness (log ratio)” value read?
**A.** -1.83

**Q.** With A113G as the variant, how does the “polymerase ribozyme fitness (log ratio)” value read?
**A.** -0.894

**Q.** For G83C A89C G126A, which “polymerase ribozyme fitness (log ratio)” value is on record?
**A.** -0.834

**Q.** With C87U U134C as the variant, how does the “polymerase ribozyme fitness (log ratio)” value read?
**A.** -0.522

**Q.** For A121U C131U U134A, which “polymerase ribozyme fitness (log ratio)” value is on record?
**A.** -2.42

**Q.** For C35G C57U, which “polymerase ribozyme fitness (log ratio)” value is on record?
**A.** ≤ -4.2

**Q.** Which “polymerase ribozyme fitness (log ratio)” value does the source give for A39G U53C A91U C95G here?
**A.** ≤ -4.2

**Q.** Which “polymerase ribozyme fitness (log ratio)” value does the source give for U31G G50U U82C A147U here?
**A.** -0.72

**Q.** With A64C G84A G128A as the variant, how does the “polymerase ribozyme fitness (log ratio)” value read?
**A.** ≤ -4.2

**Q.** With A41G U55A C57G as the variant, how does the “polymerase ribozyme fitness (log ratio)” value read?
**A.** 0.000485

**Q.** Which “polymerase ribozyme fitness (log ratio)” value does the source give for A22U U53A here?
**A.** -1.05

**Q.** With G59A U134A as the variant, how does the “polymerase ribozyme fitness (log ratio)” value read?
**A.** -2.02

**Q.** Which “polymerase ribozyme fitness (log ratio)” value does the source give for A16C A19C G84C C96U G126C here?
**A.** -3.42

**Q.** With C54U C85U U104G A119G G136A U146G A147G as the variant, how does the “polymerase ribozyme fitness (log ratio)” value read?
**A.** -3.62

**Q.** Which “polymerase ribozyme fitness (log ratio)” value does the source give for A19C A26C C38A C43G G74U G80C here?
**A.** ≤ -4.2

**Q.** For G81U G84C C118G, which “polymerase ribozyme fitness (log ratio)” value is on record?
**A.** -3.16

**Q.** For G74C C79G U82A C93U C108U, which “polymerase ribozyme fitness (log ratio)” value is on record?
**A.** ≤ -4.2

**Q.** With U82G A142C as the variant, how does the “polymerase ribozyme fitness (log ratio)” value read?
**A.** -0.83

**Q.** With G34A A41C C54A U55A C95A C103A A150C as the variant, how does the “polymerase ribozyme fitness (log ratio)” value read?
**A.** ≤ -4.2

**Q.** With A19U U55A C76G C93A as the variant, how does the “polymerase ribozyme fitness (log ratio)” value read?
**A.** ≤ -4.2

**Q.** For A91G A147U, which “polymerase ribozyme fitness (log ratio)” value is on record?
**A.** -1.52

**Q.** With G71A C95U as the variant, how does the “polymerase ribozyme fitness (log ratio)” value read?
**A.** -3.12

**Q.** With C43G C125A U146A U148A as the variant, how does the “polymerase ribozyme fitness (log ratio)” value read?
**A.** ≤ -4.2

**Q.** With G68A C85U C105A G124A G133U as the variant, how does the “polymerase ribozyme fitness (log ratio)” value read?
**A.** ≤ -4.2
